Results published in paper PMC11731035.

Molecular target: plastidic 70S ribosomes of Arabidopsis thaliana (Arabidopsis thaliana (endogenous))
Experiment: co-sedimentation; lysate of Col-0 plants grown at 21 °C layered on a 25% sucrose cushion, 173,292 x g for 20 min; immunoblot of total, supernatant and ribosomal pellet, quantified as R/(R+S); standard ribosome buffer (Mg2+), also with 800 mM KCl (high salt) or 1 mM puromycin

Row | fraction co-sedimented with ribosomes [%] | Substance
1 | 25 | Trigger factor 2 (Tig2), Arabidopsis thaliana chloroplast (natural protein)
2 | 8 | Trigger factor 1 (Tig1), Arabidopsis thaliana chloroplast (natural protein)
